Assay results published in US20070258988A1 (SLOAN KETTERING INSTITUTE FOR CANCER RESEARCH, published 2007).

Key:
[1] = biological target: T1, rMOR-1A (rat); experiment: cell-based or functional assay
T1 chain: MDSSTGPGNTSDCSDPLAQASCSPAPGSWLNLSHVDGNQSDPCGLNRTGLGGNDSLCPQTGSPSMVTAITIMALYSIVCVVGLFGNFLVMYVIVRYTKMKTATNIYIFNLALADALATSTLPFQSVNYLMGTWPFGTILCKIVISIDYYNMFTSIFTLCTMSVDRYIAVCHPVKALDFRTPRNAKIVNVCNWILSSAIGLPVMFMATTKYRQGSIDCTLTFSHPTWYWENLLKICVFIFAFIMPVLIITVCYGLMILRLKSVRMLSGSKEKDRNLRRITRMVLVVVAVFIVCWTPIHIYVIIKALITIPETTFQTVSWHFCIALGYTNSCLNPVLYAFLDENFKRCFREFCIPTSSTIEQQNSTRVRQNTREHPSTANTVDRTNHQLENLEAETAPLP

[2] = biological target: T2, rMOR-1 (no Exon 4) (rat, UniProt P33535 1-386, limits assumed); experiment: cell-based or functional assay
[3] = biological target: rMOR-1C1 (rat); experiment: cell-based or functional assay
[4] = biological target: rMOR-1D (rat); experiment: cell-based or functional assay
[5] = biological target: rMOR-1 (rat, UniProt P33535 1-398); experiment: cell-based or functional assay
[6] = biological target: T1, rMOR-1A; experiment: competition against [3H]DAMGO (~1 nM), membranes of stable CHO transfectants
Procedure: (§1) ANOVA was performed, followed by Tukey's post hoc analysis. Results are the mean ±S.E. of at least three independent determinations.

[7] = biological target: T2, rMOR-1 (no Exon 4); experiment: as above
Procedure: as §1

[8] = biological target: T3, rMOR-1C1 (rat); experiment: as above
T3 construct: whole, on cells
Procedure: as §1

[9] = biological target: T4, rMOR-1D (rat); experiment: as above
T4 construct: whole, on cells
Procedure: as §1

[10] = biological target: hMOR-1Y (human, UniProt P35372 1-388); experiment: cell-based or functional assay
[11] = biological target: hMOR-1 (exons 1-3) (human, UniProt P35372 1-388); experiment: cell-based or functional assay
[12] = biological target: hMOR-1B4 (human, UniProt P35372 1-388); experiment: cell-based or functional assay
[13] = biological target: hMOR-1A (human); experiment: cell-based or functional assay
[14] = biological target: hMOR-1B5 (human, UniProt P35372 1-388); experiment: cell-based or functional assay
[15] = biological target: hMOR-1 (human, UniProt P35372 1-400); experiment: cell-based or functional assay
[16] = biological target: hMOR-1B2 (human, UniProt P35372 1-388); experiment: cell-based or functional assay
[17] = biological target: hMOR-1B3 (human, UniProt P35372 1-388); experiment: cell-based or functional assay
[18] = biological target: hMOR-1B1 (human, UniProt P35372 1-388); experiment: cell-based or functional assay

## YGGFMTSEKSQTPLVTLFKNAIIKNAYKKGE (peptide, UniProt P01189 237-267, looked up, also called B-Endorphin) [β-Endorphin]
[1]
  Max Stim (%): 177%
[2]
  EC50 (nM), stimulation of [35S]GTPγS binding: 90 nM
  Max Stim (%): 240%
[3]
  Max Stim (%): 361%
[4]
  EC50 (nM), stimulation of [35S]GTPγS binding: 91 nM
  Max Stim (%): 165%
[5]
  EC50 (nM), stimulation of [35S]GTPγS binding: 4 nM
  Max Stim (%): 246%
[6]
  Ki: 10.5 nM
[7]
  Ki: 10 nM
[8]
  Ki: 8.8 nM
[9]
  Ki: 8.5 nM
[10]
  Max Inhib (%): 90%
[11]
  Max Inhib (%): 73%
[12]
  Max Inhib (%): 69%
[13]
  Max Inhib (%): 73%
[14]
  Max Inhib (%): 69%
[15]
  Max Inhib (%): 79%
[16]
  Max Inhib (%): 65%
[17]
  Max Inhib (%): 73%
[18]
  Max Inhib (%): 65%
